From patent US7648964B2, “Use of lacritin in promoting ocular cell survival” (University of Virginia Patent Foundation, priority 2004, dated 2010)

Experiments:
NFATC1 = NFATC1 translocation in HSG cells (immunofluorescence); type: cell-based, human; conditions: for NFATC1 translocation: HSG and corneal epithelial cells
From the text: In order to dissect the molecular pathways leading to the cell survival by lacritin, protein kinases and transcriptional factors were studied by Western blotting and immunofluorescence microscopy. […] On the other hand, there were increased activities of transcriptional factors such as nuclear factor of activated T-cells (NFAT) and NF-kappaB. In FIG. 4, translocation of PKC alpha and NFAT was detected by immunofluorescence coupled with confocal microscopic imaging. In resting HSG cells (left three images), PKC alpha distributes mainly in cytosol and membrane. Similarly, NFATc1 was also found to localize largely in cytosol. Cellular co-location of PKC alpha and NFATc1 is apparent upon merging the two immunofluorescent images, as the merged cy3 and FITC labels produce distinctive yellow color.
Images were acquired at 2-3 s intervals using LaserSharp2000 software (Bio-Rad) and store on disc for later analysis. For translocation assays, HSG cells […] phorbol 12-myristate 13-acetate, […], then washed with phosphate-buffered saline, formaldehyde-fixed, blocked with phosphate-buffered saline containing 1% bovine serum albumin and 10% goat serum, incubated with anti-PKCα (C-20) or anti-NFATC1 (mab 7A6) (both from Santa Cruz Biotechnology Inc.; Santa Cruz, Calif.) followed by secondary Cy3-, FITC- or Alexa488-labeled antibodies and confocal microscopic visualization (Bio-Rad Radiance2100).

HSG cells = experiment: Calcium mobilization imaging in HSG cells (Fluo-4); type: cell-based, human
Description: Cells were seeded at 1.4×10^4 HSG cells/mm^2 or 0.7×10^4 HSG cells/mm^2 on Matrigel-coated (100 μg/ml; BD Biosciences; San Diego Calif.) coverslips to respectively achieve 70-80% confluency after overnight or 48 h growth in 6-well plates containing phenol red-free Dulbecco's modified Eagle's medium with 10% fetal calf serum.
Other cells were incubated (0.7×10^4HSG cells/mm^2 overnight plating) with 100 ng/ml pertussis toxin (Calbiochem; San Diego Calif.) in phenol red-free Dulbecco's modified Eagle's medium with 10% fetal calf serum; or vehicle alone). Cells were washed with calcium-free/phenol red-free Hanks basic salt solution, 20 mM N-2-hydroxyethylpiperazine-N′-2-ethane sulfonic acid and then incubated for 1 h at room temperature with the same solution containing fluo-4 μM at 4 μM (FluoroPure grade [Molecular Probes; Eugene Oreg.] dissolved in DMSO plus 20% Pluronic F-127). Cells were washed three times for 60 min at room temperature with calcium-free/phenol red-free Hanks basic salt solution with 5 mM Ca^2+ or 5 mM EGTA. Temperature was stabilized for 5 min at 37° C. coverslips were placed on the stage of a TE-200 epifluorescent microscope (Bio-Rad Radiance2100 confocal/multiphoton system using Plan Fluor 60×NA 1.4 Oil IR objective lens [Bio-Rad, Hercules Calif.] as part of the W. M. Keck Center for Cellular Imaging, University of Virginia), subjected to a 488 nm argon laser light source with emission at 528 nm. Baseline monitoring was followed by addition of lacritin or deletion fragments in phenol red-free Hanks basic salt solution.

syndecan-1 = molecular target: T1, syndecan-1 (Homo sapiens, UniProt P18827); experiment: Competitive binding assay of lacritin-syndecan-1 binding; conditions: competitive binding assays
T1 construct: expressed in transfected cells; host or cells: HEK293 (syndecan-1); E. coli ER2566 (lacritin-intein)
T1 sequence (P18827 23-310): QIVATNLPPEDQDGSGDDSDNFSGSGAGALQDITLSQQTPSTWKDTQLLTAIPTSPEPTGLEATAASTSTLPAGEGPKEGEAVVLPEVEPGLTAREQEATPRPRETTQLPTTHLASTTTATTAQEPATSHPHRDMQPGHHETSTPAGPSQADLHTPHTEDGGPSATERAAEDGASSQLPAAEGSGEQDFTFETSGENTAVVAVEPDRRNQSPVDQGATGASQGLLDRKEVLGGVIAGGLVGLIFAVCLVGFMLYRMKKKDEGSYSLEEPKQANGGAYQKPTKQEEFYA
From the text: Biotinylated cell surface proteins were applied to lacritin affinity columns. After washing extensively in physiological salt-containing buffer, bound protein was eluted with 1 M NaCl, and identified with avidin-peroxidase using an ECL blot method. In controls, columns lacking lacritin were used. […] 293T cells stably transfected with human syndecan-2 or −4 were kindly provided by Dr. Atsushi Utani (Chiba University). A series of lacritin C-terminal and N-terminal deletion mutants were generated. Pull down binding assays involved incubation of intein-tagged lacritin or intein deletion mutants with lysates of untransfected or transfected cells followed by precipitation and SDS PAGE. Immunolocalization of syndecan-1 in human lacrimal glands was performed using anti-human syndecan-1 antibody (CD138).
The first of approximately four bands repeatedly eluted from lacritin affinity column was determined by sequencing to be syndecan-1. In pull-down assays, lacritin bound mammalian syndecan-1, but not syndecan-2 or 4. The binding appeared to be independent of heparan sulfate side chains, in keeping with lack of lacritin binding to heparin (previously known). Deletion of lacritin's C-terminal 25 but not N-terminal 5, 10, or 24 amino acids eliminated binding. […] Syndecan-1 was detected in ‘near apical’ and basolateral plasma membranes in human lacrimal gland.

Row | Molecule | effect on lacritin-dependent NFATC1 translocation (NFATC1; cyclosporine 1 μM, nifedipine 10 μM) | effect on Ca++ signaling after lacritin stimulation (HSG cells; Example 4) | effect on carbachol-stimulated calcium mobilization (HSG cells; U73122 1 μM, Go 6976 1 μM, even at 10 μM) | effect on lacritin-stimulated calcium mobilization (HSG cells; preincubation: pertussis toxin 100 ng/ml, U73122 1 μM, Go 6976 1 μM, or siRNA) | NFATC1 translocation (NFATC1) | NFAT localization (NFATC1; lacritin treatment for 1 hour, immunofluorescence) | calcium mobilization (HSG cells; 10 nM) | calcium mobilization in EGTA-containing medium (HSG cells; 10 nM lacritin) | time to calcium mobilization after addition (HSG cells; lacritin 10 nM) [s] | inhibition of binding (syndecan-1)
1 | Cn1c2ccccc2c2c3c(c4c5ccccc5n(CCC#N)c4c21)CNC3=O [Go 6976] | inhibited | suppress Ca++ signaling | unaffected | completely inhibited | – | – | – | – | – | –
2 | lacritin: recombinant human lacritin from E. coli; mature 119 residue fragment (SEQ ID NO:10) of native lacritin SEQ ID NO:4 (protein, listed as Homo sapiens) EDASSDSTGADPAQEAGTSKPNEEISGPAEPASPPETTTTAQETSAAAVQGTAKVTSSRQELNPLKSIVEKSILLTEQALAKAGKGMHGGVPGGKQFIENGSEFAQKLLKKFSLLKPWA | – | – | – | – | translocates into the nucleus | translocates into nuclear compartment | promotes calcium mobilization | mobilized internal calcium | ≤ 30 | inhibited binding
3 | N-24: deletion mutant comprising a deletion of the 24 amino terminal amino acids of lacritin (protein, homo sapiens, deletion mutant comprising a deletion of the 24 amino terminal amino acids of lacritin) DSTGADPAQEAGTSKPNEEISGPAEPASPPETTTTAQETSAAAVQGTAKVTSSRQELNPLKSIVEKSILLTEQALAKAGKGMHGGVPGGKQFIENGSEFAQKLLKKFSLLKPWA | – | – | – | – | translocates into the nucleus | – | – | – | – | inhibited binding
